The values that follow come from the supplement of paper PMC5998384.

For series [1], the system named is HeLa Kyoto. Briefly: melting temperature (median over replicates), in situ; higher = more thermally stable.
For series [2], the system named is HeLa Kyoto. The series can be described thus: thermal stability score vs G1/S (z-score of summed log2 fold changes over temperatures); higher = more thermally stable than in G1/S.
Series [3] has as its system HeLa Kyoto. The series can be described thus: solubility in G1/S (NP-40 vs SDS abundance) (log2 ratio); higher = more soluble. The note with it: cell cycle stage: G1/S.
Series [4] concerns HeLa Kyoto. The series can be described thus: solubility change mitosis vs G1/S (difference of NP-40 vs SDS log2 ratios) (log2 ratio difference); higher = more soluble in mitosis.
The mark [5] stands for this setting: cell cycle stage: early G1 (4.5 h after nocodazole release).
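Throughout, for melting temperature (median over replicates), in situ: HeLa Kyoto cells synchronized by double thymidine or nocodazole block, proteins quantified by TMT10plex mass spectrometry, three independent biological replicates.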
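Throughout, for solubility change mitosis vs G1/S (difference of NP-40 vs SDS log2 ratios): synchronized HeLa Kyoto cells (double thymidine block for G1/S, nocodazole release for mitosis), protein amounts in NP-40 versus SDS lysates quantified by mass spectrometry, three biological replicates.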
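Throughout, for solubility in G1/S (NP-40 vs SDS abundance): HeLa Kyoto cells arrested at G1/S by double thymidine block, proteins quantified by TMT10plex mass spectrometry in mild NP-40 versus SDS extracts, three biological replicates.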
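Throughout, for thermal stability score vs G1/S (z-score of summed log2 fold changes over temperatures): synchronized HeLa Kyoto cells, proteins quantified by TMT10plex mass spectrometry, three biological replicates, mitosis taken 0.5 h after nocodazole release, G1/S directly after double thymidine block.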

Take “MAAAAAAGEARRVLVYGGRGALGSRCVQAFRARNWWVASVDVVENEEASASIIVKMTDSFTEQADQVTAEVGKLLGEEKVDAILCVAGGWAGGNAKSKSLFKNCDLMWKQSIWTSTISSHLATKHLKEGGLLTLAGAKAALDGTPGMIGYGMAKGAVHQLCQSLAGKNSGMPPGAAAIAVLPVTLDTPMNRKSMPEADFSSWTPLEFLVETFHDWITGKNRPSSGSLIQVVTTEGRTELTPAYF [QDPR]”: the melting temperature in the series with HeLa Kyoto [1] (cell cycle stage: G1/S) and with HeLa Kyoto [1] (cell cycle stage: mitosis) was 55.5 °C throughout. The thermal stability score was -1.31 with HeLa Kyoto [2] (setting [5]) and -0.994 in the series with HeLa Kyoto [2] (cell cycle stage: mitosis). Also, the “solubility in G1/S (log2)” value with HeLa Kyoto [3] was found to be 0.236. The “solubility change mitosis (log2)” value in the series on HeLa Kyoto [4] was -0.0466.

In the case of “MAAAAAGTATSQRFFQSFSDALIDEDPQAALEELTKALEQKPDDAQYYCQRAYCHILLGNYCVAVADAKKSLELNPNNSTAMLRKGICEYHEKNYAAALETFTEGQKLDIETGFHRVGQAGLQLLTSSDPPALDSQSAGITGADANFSVWIKRCQEAQNGSESEVWTHQSKIKYDWYQTESQVVITLMIKNVQKNDVNVEFSEKELSALVKLPSGEDYNLKLELLHPIIPEQSTFKVLSTKIEIKLKKPEAVRWEKLEGQGDVPTPKQFVADVKNLYPSSSPYTRNWDKLVGEIKEEEKNEKLEGDAALNRLFQQIYSDGSDEVKRAMNKSFMESGGTVLSTNWSDVGKRKVEINPPDDMEWKKY [SUGT1]”, the melting temperature with HeLa Kyoto [1] (cell cycle stage: G1/S) is 51.5 °C; in the series with HeLa Kyoto [1] (cell cycle stage: mitosis), 52 °C. Further, the thermal stability score is 0.39 in the series on HeLa Kyoto [2] (setting [5]) and -0.171 in the series with HeLa Kyoto [2] (cell cycle stage: mitosis). Further, the “solubility in G1/S (log2)” value with HeLa Kyoto [3] was 0.138. Further, the “solubility change mitosis (log2)” value in the series on HeLa Kyoto [4] was -0.0323.

In the case of “MAAAAAQGGGGGEPRRTEGVGPGVPGEVEMVKGQPFDVGPRYTQLQYIGEGAYGMVSSAYDHVRKTRVAIKKISPFEHQTYCQRTLREIQILLRFRHENVIGIRDILRASTLEAMRDVYIVQDLMETDLYKLLKSQQLSNDHICYFLYQILRGLKYIHSANVLHRDLKPSNLLINTTCDLKICDFGLARIADPEHDHTGFLTEYVATRWYRAPEIMLNSKGYTKSIDIWSVGCILAEMLSNRPIFPGKHYLDQLNHILGILGSPSQEDLNCIINMKARNYLQSLPSKTKVAWAKLFPKSDSKALDLLDRMLTFNPNKRITVEEALAHPYLEQYYDPTDEPVAEEPFTFAMELDDLPKERLKELIFQETARFQPGVLEAP [MAPK3]”, the melting temperature stood at 51.3 °C in the series on HeLa Kyoto [1] (cell cycle stage: G1/S) and 50.2 °C in the series on HeLa Kyoto [1] (cell cycle stage: mitosis). Also, the thermal stability score in the series on HeLa Kyoto [2] (setting [5]) was -0.246; with HeLa Kyoto [2] (cell cycle stage: mitosis), -0.247. Also, the “solubility in G1/S (log2)” value with HeLa Kyoto [3] was 0.391. Besides, the “solubility change mitosis (log2)” value in the series on HeLa Kyoto [4] is -0.228.

With “MAAAAGRSLLLLLSSRGGGGGGAGGCGALTAGCFPGLGVSRHRQQQHHRTVHQRIASWQNLGAVYCSTVVPSDDVTVVYQNGLPVISVRLPSRRERCQFTLKPISDSVGVFLRQLQEEDRGIDRVAIYSPDGVRVAASTGIDLLLLDDFKLVINDLTYHVRPPKRDLLSHENAATLNDVKTLVQQLYTTLCIEQHQLNKERELIERLEDLKEQLAPLEKVRIEISRKAEKRTTLVLWGGLAYMATQFGILARLTWWEYSWDIMEPVTYFITYGSAMAMYAYFVMTRQEYVYPEARDRQYLLFFHKGAKKSRFDLEKYNQLKDAIAQAEMDLKRLRDPLQVHLPLRQIGEKD [MCU]”, the melting temperature with HeLa Kyoto [1] (cell cycle stage: G1/S) came out at 53 °C; in the series with HeLa Kyoto [1] (cell cycle stage: mitosis) it was 52.9 °C. Also, the results for the thermal stability score in the series on HeLa Kyoto [2] (setting [5]) and in the series with HeLa Kyoto [2] (cell cycle stage: mitosis) were 0.0563 and -1.45, respectively. In addition, the “solubility in G1/S (log2)” value in the series on HeLa Kyoto [3] came to 0.00831. The “solubility change mitosis (log2)” value in the series with HeLa Kyoto [4] is -0.0872.

On to “MAAAALRSGWCRCPRRCLGSGIQFLSSHNLPHGSTYQMRRPGGELPLSKSYSSGNRKGFLSGLLDNVKQELAKNKEMKESIKKFRDEARRLEESDVLQEARRKYKTIESETVRTSEVLRKKLGELTGTVKESLHEVSKSDLGRKIKEGVEEAAKTAKQSAESVSKGGEKLGRTAAFRALSQGVESVKKEIDDSVLGQTGPYRRPQRLRKRTEFAGDKFKEEKVFEPNEEALGVVLHKDSKWYQQWKDFKENNVVFNRFFEMKMKYDESDNAFIRASRALTDKVTDLLGGLFSKTEMSEVLTEILRVDPAFDKDRFLKQCENDIIPNVLEAMISGELDILKDWCYEATYSQLAHPIQQAKALGLQFHSRILDIDNVDLAMGKMMEQGPVLIITFQAQLVMVVRNPKGEVVEGDPDKVLRMLYVWALCRDQDELNPYAAWRLLDISASSTEQIL [TIMM44]”, for which the melting temperature with HeLa Kyoto [1] (cell cycle stage: G1/S) came out at 52 °C; in the series on HeLa Kyoto [1] (cell cycle stage: mitosis), 51.6 °C. In addition, the thermal stability score in the series on HeLa Kyoto [2] (setting [5]) was 0.205; in the series with HeLa Kyoto [2] (cell cycle stage: mitosis) it was -0.742. Moreover, the “solubility in G1/S (log2)” value with HeLa Kyoto [3] turned out to be 0.144. Moreover, the “solubility change mitosis (log2)” value with HeLa Kyoto [4] is -0.0435.

Regarding “MAAAANSGSSLPLFDCPTWAGKPPPGLHLDVVKGDKLIEKLIIDEKKYYLFGRNPDLCDFTIDHQSCSRVHAALVYHKHLKRVFLIDLNSTHGTFLGHIRLEPHKPQQIPIDSTVSFGASTRAYTLREKPQTLPSAVKGDEKMGGEDDELKGLLGLPEEETELDNLTEFNTAHNKRISTLTIEEGNLDIQRPKRKRKNSRVTFSEDDEIINPEDVDPSVGRFRNMVQTAVVPVKKKRVEGPGSLGLEESGSRRMQNFAFSGGLYGGLPPTHSEAGSQPHGIHGTALIGGLPMPYPNLAPDVDLTPVVPSAVNMNPAPNPAVYNPEAVNEPKKKKYAKEAWPGKKPTPSLLI [PPP1R8]”, the melting temperature in the series on HeLa Kyoto [1] (cell cycle stage: G1/S) came out at 50.4 °C; with HeLa Kyoto [1] (cell cycle stage: mitosis), 51.2 °C. Besides, the thermal stability score in the series on HeLa Kyoto [2] (setting [5]) was 0.0118; in the series on HeLa Kyoto [2] (cell cycle stage: mitosis), -0.547. In addition, the “solubility in G1/S (log2)” value with HeLa Kyoto [3] is 0.0809. In addition, the “solubility change mitosis (log2)” value in the series with HeLa Kyoto [4] was -0.0793.

Take “MAAAAPDSRVSEEENLKKTPKKKMKMVTGAVASVLEDEATDTSDSEGSCGSEKDHFYSDDDAIEADSEGDAEPCDKENENDGESSVGTNMGWADAMAKVLNKKTPESKPTILVKNKKLEKEKEKLKQERLEKIKQRDKRLEWEMMCRVKPDVVQDKETERNLQRIATRGVVQLFNAVQKHQKNVDEKVKEAGSSMRKRAKLISTVSKKDFISVLRGMDGSTNETASSRKKPKAKQTEVKSEEGPGWTILRDDFMMGASMKDWDKESDGPDDSRPESASDSDT [RRP15]”: the melting temperature with HeLa Kyoto [1] (cell cycle stage: mitosis) was found to be 54.2 °C. In addition, the thermal stability score is -5.18 in the series with HeLa Kyoto [2] (setting [5]) and -11.7 in the series with HeLa Kyoto [2] (cell cycle stage: mitosis). The “solubility in G1/S (log2)” value with HeLa Kyoto [3] is -1.21. Further, the “solubility change mitosis (log2)” value with HeLa Kyoto [4] was 0.962.

Regarding “MAAAAVSGALGRAGWRLLQLRCLPVARCRQALVPRAFHASAVGLRSSDEQKQQPPNSFSQQHSETQGAEKPDPESSHSPPRYTDQGGEEEEDYESEEQLQHRILTAALEFVPAHGWTAEAIAEGAQSLGLSSAAASMFGKDGSELILHFVTQCNTRLTRVLEEEQKLVQLGQAEKRKTDQFLRDAVETRLRMLIPYIEHWPRALSILMLPHNIPSSLSLLTSMVDDMWHYAGDQSTDFNWYTRRAMLAAIYNTTELVMMQDSSPDFEDTWRFLENRVNDAMNMGHTAKQVKSTGEALVQGLMGAAVTLKNLTGLNQRR [COQ9]”, the melting temperature in the series on HeLa Kyoto [1] (cell cycle stage: G1/S) is 51.5 °C; in the series on HeLa Kyoto [1] (cell cycle stage: mitosis) it was 51.8 °C. In addition, the thermal stability score in the series on HeLa Kyoto [2] (setting [5]) was -0.112; with HeLa Kyoto [2] (cell cycle stage: mitosis), 0.754. For the same sequence, the “solubility in G1/S (log2)” value with HeLa Kyoto [3] was 0.16. Also, the “solubility change mitosis (log2)” value in the series with HeLa Kyoto [4] turned out to be 0.333.
